How the values were obtained:
Test in all cases: two-hybrid library CCmax;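 note: natural log of median RNA to DNA barcode read ratio; higher means stronger binding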
Conditions in all cases: mean of both orientations
[1] = biological target: T1, 4H1351-AA
T1 chain: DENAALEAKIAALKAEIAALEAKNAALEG

[2] = biological target: T2, 4H1597-AA
T2 chain: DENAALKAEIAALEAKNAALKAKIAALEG

[3] = biological target: T3, 4H1626-AA
T3 chain: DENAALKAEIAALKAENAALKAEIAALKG

[4] = biological target: T4, 4H171-AA
T4 chain: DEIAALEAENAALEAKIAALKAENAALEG

[5] = biological target: T5, 4H1842-AA
T5 chain: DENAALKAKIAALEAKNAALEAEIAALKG

[6] = biological target: T6, 4H1874-AA
T6 chain: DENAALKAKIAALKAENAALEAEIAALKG

[7] = biological target: T7, 4H1877-AA
T7 chain: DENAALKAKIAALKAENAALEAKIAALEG

[8] = biological target: T8, 4H2109-AA
T8 chain: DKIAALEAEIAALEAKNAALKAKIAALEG

[9] = biological target: T9, 4H2198-AA
T9 chain: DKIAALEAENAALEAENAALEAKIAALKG

[10] = biological target: T10, 4H3056-AA
T10 chain: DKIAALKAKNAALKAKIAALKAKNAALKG

[11] = biological target: T11, 4H32-AA
T11 chain: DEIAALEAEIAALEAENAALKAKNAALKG

[12] = biological target: T12, 4H3413-AA
T12 chain: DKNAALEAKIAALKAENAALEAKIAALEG

B1: 4H1310-AA (peptide)
chain: DENAALEAKIAALEAENAALKAKIAALKG
**Q.** For B1, which interaction score [1] is on record?
**A.** The interaction score was -1.27.

**Q.** And the interaction score [2]?
**A.** The interaction score was 0.746.

**Q.** What about the interaction score [3] of the same binder?
**A.** Its interaction score is -0.373.

**Q.** What about the interaction score [4] of the same binder?
**A.** The interaction score was -0.8.

**Q.** And the interaction score [5]?
**A.** The interaction score was 0.334.

**Q.** And the interaction score [6]?
**A.** Its interaction score is 2.14.

**Q.** And the interaction score [7]?
**A.** Its interaction score is 1.5.

**Q.** What about the interaction score [8] of the same binder?
**A.** The interaction score was 0.409.

**Q.** What about the interaction score [9] of the same binder?
**A.** The interaction score was -0.878.

**Q.** What about the interaction score [10] of the same binder?
**A.** The interaction score was -1.47.

**Q.** What about the interaction score [11] of the same binder?
**A.** Its interaction score is -1.07.

**Q.** What about the interaction score [12] of the same binder?
**A.** Its interaction score is 1.51.

— article PMC10397247
